Values quoted from earlier work in PMC12071684.

Target: von Willebrand factor (Homo sapiens) (UniProt P04275)

For ADAMTS13 (from UniProt Q76LX8), the Kd is listed as 20 nM.
